Like-named read-outs stand apart in the source and are kept apart here.
Experiments:
[1] = biological target: T1, High-conductance, Ca2+-activated K+ channel from rat skeletal muscle (rat (endogenous in skeletal muscle), UniProt Q62976 1-1209); assay: single-channel recording in planar lipid bilayers
[2] = biological target: T1, High-conductance, Ca2+-activated K+ …; assay: single-channel recording in planar lipid bilayers; remark: listed apart in the source

T1 sequence (Q62976 whole entry): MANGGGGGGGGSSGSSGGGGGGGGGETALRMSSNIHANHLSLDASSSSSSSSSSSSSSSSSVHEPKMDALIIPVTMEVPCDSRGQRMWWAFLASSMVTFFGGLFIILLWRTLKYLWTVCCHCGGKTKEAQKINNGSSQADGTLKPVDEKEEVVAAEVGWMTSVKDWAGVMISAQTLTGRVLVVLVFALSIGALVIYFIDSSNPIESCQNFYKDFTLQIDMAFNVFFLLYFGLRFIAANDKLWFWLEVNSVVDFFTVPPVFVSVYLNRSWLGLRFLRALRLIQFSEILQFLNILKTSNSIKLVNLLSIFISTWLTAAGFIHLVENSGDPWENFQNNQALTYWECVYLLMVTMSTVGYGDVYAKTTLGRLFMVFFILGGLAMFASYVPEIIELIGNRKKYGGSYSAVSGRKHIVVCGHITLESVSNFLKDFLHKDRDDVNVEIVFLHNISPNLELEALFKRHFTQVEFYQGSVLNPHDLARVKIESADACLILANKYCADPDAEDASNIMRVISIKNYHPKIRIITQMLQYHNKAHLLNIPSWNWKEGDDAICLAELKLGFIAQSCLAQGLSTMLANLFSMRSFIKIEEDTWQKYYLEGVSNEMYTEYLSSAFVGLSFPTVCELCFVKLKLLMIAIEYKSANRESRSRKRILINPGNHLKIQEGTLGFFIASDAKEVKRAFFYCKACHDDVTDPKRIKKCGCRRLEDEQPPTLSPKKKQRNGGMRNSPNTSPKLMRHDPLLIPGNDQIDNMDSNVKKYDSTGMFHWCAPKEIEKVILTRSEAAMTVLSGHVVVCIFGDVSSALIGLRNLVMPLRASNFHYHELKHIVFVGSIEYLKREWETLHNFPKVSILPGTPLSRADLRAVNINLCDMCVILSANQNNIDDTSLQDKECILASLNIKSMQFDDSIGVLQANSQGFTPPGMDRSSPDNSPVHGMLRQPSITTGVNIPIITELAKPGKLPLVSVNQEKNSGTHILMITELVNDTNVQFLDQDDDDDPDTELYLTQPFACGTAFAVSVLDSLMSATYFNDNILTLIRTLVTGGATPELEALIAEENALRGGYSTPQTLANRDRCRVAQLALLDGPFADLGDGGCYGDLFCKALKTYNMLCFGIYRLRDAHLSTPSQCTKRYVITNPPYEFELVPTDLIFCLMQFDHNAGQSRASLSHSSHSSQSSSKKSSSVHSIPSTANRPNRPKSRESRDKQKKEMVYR

## QFTNVSCTTSKECWSVCQRLHNTSRGKCMNKKCRCYS (natural protein) [Charybdotoxin]
[1]
  koff: ~0.01 s⁻¹
[2]
  koff: 0.01 s⁻¹

Source: paper PMC2216138 (The Journal of General Physiology, 1988)
